According to article PMC8761697, “Dehydrogenase reductase 9 (SDR9C4) and related homologs recognize a broad spectrum of lipid mediator oxylipins as substrates” (The Journal of Biological Chemistry, 2021):

Experiments:
Assay in all cases: HPLC of oxidised product, Sf9 microsomes
Assay type in all cases: biochemical, Homo sapiens
Details in all cases: apparent Km, NAD+-dependent oxidation, 90 mM potassium phosphate pH 7.3, 40 mM KCl, 37 °C
[1] = substrate: CCCCC[C@H](O)/C=C/C=C\C/C=C\C/C=C\CCCC(=O)O
Text: (§1) HPLC of oxidised product, Sf9 microsomes on human DHRS9 (SDR9C4)

[2] = substrate: CCCCC/C=C\C[C@@H](O)/C=C/C=C/C=C\[C@@H](O)CCCC(=O)O
Text: as §1

[3] = substrate: CCCCC[C@H](O)/C=C/C=C\C=C\C=C\[C@@H](O)[C@@H](O)CCCC(=O)O
Text: as §1

[4] = substrate: CCCCC/C=C\C[C@H](O)/C=C/C=C\C/C=C\CCCC(=O)O
Text: as §1

[5] = substrate: CCCCC/C=C\C=C\[C@@H](O)CCCCCCCC(=O)O
Text: as §1

[6] = substrate: CCCCC[C@H](O)/C=C/C=C\CCCCCCCC(=O)O
Text: as §1

[7] = substrate: CC/C=C\C[C@H](O)/C=C/C=C\C=C\C=C\[C@@H](O)[C@@H](O)C/C=C\CCC(=O)O
Text: as §1

[8] = substrate: CCCCC[C@H](O)/C=C/C=C\C/C=C\C/C=C\CCCC(=O)O; remark: listed apart in the source
Text: (§2) HPLC of oxidised product, Sf9 microsomes on human HSD17B6 (SDR9C6)

[9] = substrate: CCCCC/C=C\C[C@H](O)/C=C/C=C\C/C=C\CCCC(=O)O; remark: listed apart in the source
Text: as §2

[10] = substrate: CCCCC/C=C\C=C\[C@@H](O)CCCCCCCC(=O)O; remark: listed apart in the source
Text: as §2

[11] = substrate: CCCCC[C@H](O)/C=C/C=C\CCCCCCCC(=O)O; remark: listed apart in the source
Text: as §2

[12] = substrate: CCCCC[C@H](O)/C=C/C=C\C/C=C\C/C=C\CCCC(=O)O; remark: listed apart in the source
Text: (§3) HPLC of oxidised product, Sf9 microsomes on human RDH16 (SDR9C8)

[13] = substrate: CCCCC/C=C\C[C@H](O)/C=C/C=C\C/C=C\CCCC(=O)O; remark: listed apart in the source
Text: as §3

[14] = substrate: CCCCC/C=C\C=C\[C@@H](O)CCCCCCCC(=O)O; remark: listed apart in the source
Text: as §3

[15] = substrate: CCCCC[C@H](O)/C=C/C=C\CCCCCCCC(=O)O; remark: listed apart in the source
Text: as §3

B1: human DHRS9 (SDR9C4) (Homo sapiens) (protein)
chain: RKGKLKIEDITDKYIFITGCDSGFGNLAARTFDKKGFHVIAACLTESGSTALKAETSERLRTVLLDVTDPENVKRTAQWVKNQVGEKGLWGLINNAGVPGVLAPTDWLTLEDYREPIEVNLFGLISVTLNMLPLVKKAQGRVINVSSVGGRLAIVGGGYTPSKYAVEGFNDSLRRDMKAFGVHVSCIEPGLFKTNLADPVKVIEKKLAIWEQLSPDIKQQYGEGYIEKSLDKLKGNKSYVNMDLSPVVECMDHALTSLFPKTHYAAGKDAKIFWIPLSHMPAALQDFLLLKQKAELANPKAV
notes: recombinant, baculovirus-infected Sf9 cell microsomes
Km [1]: 0.36 ± 0.18 µM | Vmax [1]: 0.00014 µmol/min | Km [2]: 0.76 ± 0.44 µM | Vmax [2]: 0.00017 µmol/min | Km [3]: 4.6 ± 2.7 µM | Vmax [3]: 0.00023 µmol/min | Km [4]: 0.43 ± 0.16 µM | Vmax [4]: 0.00022 µmol/min | Km [5]: 0.57 ± 0.25 µM | Vmax [5]: 2.4e-05 µmol/min | Km [6]: 0.46 ± 0.19 µM | Vmax [6]: 0.00011 µmol/min | Km [7]: 1.6 ± 0.5 µM | Vmax [7]: 8.5e-05 µmol/min

B2: human HSD17B6 (SDR9C6) (Homo sapiens) (protein)
chain: YRERQVVSHLQDKYVFITGCDSGFGNLLARQLDARGLRVLAACLTEKGAEQLRGQTSDRLETVTLDVTKMESIAAATQWVKEHVGDRGLWGLVNNAGILTPITLCEWLNTEDSMNMLKVNLIGVIQVTLSMLPLVRRARGRIVNVSSILGRVAFFVGGYCVSKYGVEAFSDILRREIQHFGVKISIVEPGYFRTGMTNMTQSLERMKQSWKEAPKHIKETYGQQYFDALYNIMKEGLLNCSTNLNLVTDCMEHALTSVHPRTRYSAGWDAKFFFIPLSYLPTSLADYILTRSWPKPAQAV
notes: as for B1
Km [8]: 1.78 ± 0.42 µM | Vmax [8]: 2.88e-06 µmol/min | Km [9]: 0.87 ± 0.35 µM | Vmax [9]: 7.96e-06 µmol/min | Km [10]: 0.64 ± 0.28 µM | Vmax [10]: 4e-07 µmol/min | Km [11]: 0.33 ± 0.24 µM | Vmax [11]: 9e-07 µmol/min

B3: human RDH16 (SDR9C8) (Homo sapiens) (protein)
chain: MWLYLAVFVGLYYLLHWYRERQVLSHLRDKYVFITGCDSGFGKLLARQLDARGLRVLAACLTEKGAEQLRGQTSDRLETVTLDVTKTESVAAAAQWVKECVRDKGLWGLVNNAGISLPTAPNELLTKQDFVTILDVNLLGVIDVTLSLLPLVRRARGRVVNVSSVMGRVSLFGGGYCISKYGVEAFSDSLRRELSYFGVKVAMIEPGYFKTAVTSKERFLKSFLEIWDRSSPEVKEAYGEKFVADYKKSAEQMEQKCTQDLSLVTNCMEHALIACHPRTRYSAGWDAKLLYLPMSYMPTFLVDAIMYWVSPSPAKAL
notes: as for B1
Km [12]: 1.39 ± 0.56 µM | Vmax [12]: 2.04e-05 µmol/min | Km [13]: 2.01 ± 0.64 µM | Vmax [13]: 2.15e-06 µmol/min | Km [14]: 1.76 ± 0.59 µM | Vmax [14]: 1.67e-05 µmol/min | Km [15]: 0.83 ± 0.36 µM | Vmax [15]: 7.7e-06 µmol/min
